Assay results published in publication PMC9359782.

Target: Human immunoglobulin G (IgG) (human)
Assay: LSPR

- LLSPR wavelength shift: < 1 nm
Substance: Bovine serum albumin (from UniProt P02769 25-607) (natural protein)
